# Data: the supplement of paper PMC12042874
# ± gives the uncertainty stated by the source.
# Assay: amyloid nucleation score (Sup35N fusion, yeast selection) (log enrichment); library NNK3; higher = more nucleation; inactive = no reads after selection
# How it was run: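 The nucleation score is a DiMSum log enrichment of output over input reads, centred on the mode score of non-aggregating sequences. Sequences under 100 input reads were excluded, and reads came from Illumina sequencing of plasmid inserts. Psi-negative yeast expressing Sup35N fused to peptides of 20 random codons were induced with 100 μM copper sulfate for 24 hours and grown 7 days at 30°C on medium lacking adenine and uracil. Random libraries had three technical output replicates.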
row,Substance,amyloid nucleation score
1,GERVSSESGRMPLPLCCYLV,inactive
2,GESLQLECLYFTFIKMYVSL,inactive
3,GEWSNLSNCTVNNVSRSGCS,inactive
4,GEYFCRNLNHID,inactive
5,GFFCIYWGHWGFSES,inactive
6,GFFSLYVVE,inactive
7,GFIEW,inactive
8,GFIQRKNQRGVKKCRESYYY,inactive
9,GFLGCRSETFWRVVVTKRKV,inactive
10,GFLKCVGVRLDDSRGVVCAT,inactive
11,GFMGFVTSHVKMTGNMCNEI,inactive
12,GFPPCSTRTIQLTWHSSNV,0.37 ± 0.17
13,GFSYM,inactive
14,GFTAGRFPCGSFWLGSCCWY,0.231 ± 0.36
15,GFTFNGF,inactive
16,GFTLHHLTACVIGTCVFFSP,1.93 ± 0.1
17,GFVIYLNVALLVRSNINRVC,inactive
18,GGDTPDDRVSNHCLYRHHHV,inactive
19,GGEGLVRQA,inactive
20,GGHENKKRYSSRTIGMCVHE,inactive
21,GGKQCTPNDTM,-0.186 ± 0.55
22,GGLRNNPKRVIRDEDVQVHM,inactive
23,GGSARCNRLCWYAVLDVLLL,inactive
24,GGSFKVDNPKVTRAWISFFS,0.802 ± 0.13

row,Substance,amyloid nucleation score
1,GGSFREVVNRRTRVGEDP,inactive
2,GHQNRTP,inactive
3,GICWY,inactive
4,GIDDDCARHIYWGRFLIGSC,-0.241 ± 1.1
5,GIFCYQWWRTNPNESLAR,inactive
6,GIGNCYLMLQTKIFEWFFSE,inactive
7,GIKNMRSISKFGWVFLIYTV,inactive
8,GISMRRNFSLNKCCSAQSLF,inactive
9,GISSKRMFLSLSAFERSVYI,inactive
10,GISWILSVGGCTSRAWLWSW,inactive
11,GITIWLYNPYFL,inactive
12,GIVILLNYHPIRLF,2.2 ± 0.068
13,GIVYKRVYRMWVHVAEAESR,inactive
14,GIYCMSVSWFNVDLDTTGNT,inactive
15,GIYRLGVNHGMFSCLM,inactive
16,GKARQSLHIGSSLLTFMA,inactive
17,GKKDRVRQTYFYMNSYIHW,1.65 ± 0.085
18,GKLCYYSVYWESALNQPRSS,inactive
19,GKLFWFCFRWRYLLTKMVQN,-0.702 ± 1.3
20,GKNSCCKLIVWDEVFGLKLC,inactive
21,GKPWGTGSLVLWYLYDEDCA,inactive
22,GKSIKGYGHSVFTVVLTVGY,inactive
23,GKYSYLDIPTTIVYMFIH,1.44 ± 0.14
24,GLALGWHFTC,inactive

row,Substance,amyloid nucleation score
1,GLCHMFGYDFTSMNCSSPGA,inactive
2,GLDLSSYPEL,inactive
3,GLFCLKFKPTQGVPRQKLL,inactive
4,GLGWNWDWR,inactive
5,GLNLR,inactive
6,GLPLEWDDSWNVKIVLLCWS,inactive
7,GLRVTH,inactive
8,GLSISFTTDFFLKVLSESAR,inactive
9,GLSLNYCVLGYGLLTM,inactive
10,GLTFCATRCRDWLEGWQY,inactive
11,GLVCFYTGLDVMLDTREFYR,inactive
12,GLYMKVKFGYTEWQDFGQSS,-0.237 ± 0.69
13,GLYSDNSVYTLQMFIEGAHH,0.4 ± 0.3
14,GMAWLVGWLGLRLLTYFGYR,inactive
15,GMDKRNNYMSIIDWRVPHSI,inactive
16,GMFPVVRNGRWELRCPAVKW,inactive
17,GMYGMSGMV,inactive
18,GNALSIEVDGSIK,inactive
19,GNFAM,inactive
20,GNFKCELVSALSDNIICPYM,inactive
21,GNIAYSVLMWSDCKTCQCDV,1.82 ± 0.058
22,GNKQVVNWDGYF,-0.431 ± 0.96
23,GNLSFTPGITRKKSVLEYRH,inactive
24,GNMLSPI,inactive

row,Substance,amyloid nucleation score
1,GNSHLSCERSCNIKMCMSGG,inactive
2,GNSIALSE,inactive
3,GNSSII,inactive
4,GNWTQ,inactive
5,GNYRLSLHVVL,1.21 ± 0.18
6,GNYVRIETS,inactive
7,GPIEPFSMLSM,-0.291 ± 0.7
8,GPPAEASHKLWPASPRDRCP,inactive
9,GPPLNYEVT,inactive
10,GQFML,inactive
11,GQWLYGWTRYVGPTI,inactive
12,GRANGFQQIDLCEYHREYLN,inactive
13,GRCNLGSMNNWFKLPLKSVR,inactive
14,GRCVEVCLIWLTKGDQQCSY,inactive
15,GREAGVIIWVRCLYFYVFER,inactive
16,GRFASYMYCILQQHSLFYWV,inactive
17,GRFRLMNLFQTDSRINLWVR,inactive
18,GRLSVFLGYIHGRCYGALGR,-0.635 ± 1.9
19,GRVESSVIYRPLNLGGGQES,inactive
20,GSASHDPTACCFYGFV,inactive
21,GSATVMIWQR,inactive
22,GSDSVAGHYFSFVYKVIAEF,0.292 ± 0.3
23,GSFSMKDTVEVYLTPVWFSR,inactive
24,GSGIINDMGFRWIFFMWVMA,inactive

row,Substance,amyloid nucleation score
1,GSICYHGWTFKGKVKILNGI,inactive
2,GSKESPKRYSSSALASVGVI,inactive
3,GSLKPMFDRSCFFNIKAIML,inactive
4,GSLPFLSYLGRVKCGERRSS,inactive
5,GSNFICTFRVGKGYRPVCLE,inactive
6,GSNRQTVRFNWS,inactive
7,GSRLSIQTFMTS,inactive
8,GSSKCRRLCGRVRQYSYWNR,inactive
9,GSSSCY,inactive
10,GSVFGKVGTVKSEMPRGSSN,inactive
11,GSVGSRADVFLGCGDEWRQA,inactive
12,GSWSVRLPLIWTKY,inactive
13,GTAIIEGTM,inactive
14,GTGMCCLIVSLVFLPLCDIA,inactive
15,GTIHFHGGNHCSLGLL,inactive
16,GTLDNDRVIVWSDLDFSCFR,inactive
17,GTSIYSYRYLRYFSMFNM,inactive
18,GTWNVKAGGPYFKVVT,inactive
19,GVADGGMPRNSSWRLSGVVR,inactive
20,GVCKWFCESIDMTLRAVWAN,inactive
21,GVCSLCKTLR,inactive
22,GVFAIGANLQANVGNDRAYT,inactive
